Values belong to the binder of their own block, whether it stands above or below them.
Biological target: 4-Ig human B7H3 (analyte of the Biacore SPR) (Homo sapiens, UniProt Q5ZPR3)
Experiment: SPR

Chain of 4-Ig human B7H3 (analyte of the Biacore SPR) (Q5ZPR3 29-466): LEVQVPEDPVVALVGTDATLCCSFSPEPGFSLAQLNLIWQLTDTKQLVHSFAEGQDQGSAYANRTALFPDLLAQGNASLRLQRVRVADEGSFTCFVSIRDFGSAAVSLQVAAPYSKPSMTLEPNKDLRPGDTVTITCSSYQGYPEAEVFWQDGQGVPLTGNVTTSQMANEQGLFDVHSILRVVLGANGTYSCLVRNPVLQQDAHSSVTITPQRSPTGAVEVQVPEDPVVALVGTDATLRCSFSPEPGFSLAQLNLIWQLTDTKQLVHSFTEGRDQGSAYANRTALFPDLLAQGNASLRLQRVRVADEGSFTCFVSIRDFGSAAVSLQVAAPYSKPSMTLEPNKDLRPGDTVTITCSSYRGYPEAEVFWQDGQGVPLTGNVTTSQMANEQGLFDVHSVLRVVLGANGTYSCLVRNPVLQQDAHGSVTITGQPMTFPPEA

- Kd: 0.44 nM
B1: TE9 whole antibody in human IgG1 format (antibody, V domains shown)
VH: QVQLQQSGAALVKPGTSVKLSCKASGYTFTSYWMHWVKQRPGQGLEWIGMIHPKSGSVDYNEKFTNKATLTGDKSSGTAYMQLSSLTSEDSAVYYCARGGYGSPFDYWGQGTTVTVSS
VL: ENVLTQSPAIMSASPGEKVTMTCSASSSVSYMYWYQQKPGSSPRLLIYRTSNLASGVPARFSGSGSGTSYSLTISSMEAEDAATYYCQQWSSNPPTFGGGTKLEIK

- Kd: 1.61 nM
B2: MGA271 whole antibody in human IgG1 format (antibody, V domains shown)
VH: EVQLVESGGGLVQPGGSLRLSCAASGFTFSSFGMHWVRQAPGKGLEWVAYISSDSSAIYYADTVKGRFTISRDNAKNSLYLQMNSLRDEDTAVYYCGRGRENIYYGSRLDYWGQGTTVTVSS
VL: DIQLTQSPSFLSASVGDRVTITCKASQNVDTNVAWYQQKPGKAPKALIYSASYRYSGVPSRFSGSGSGTDFTLTISSLQPEDFATYYCQQYNNYPFTFGQGTKLEIK

— article PMC12325614 (Nature Communications, 2025)
